Assay results reported in US20110158985A1 (published 2011).
Substitutions are numbered along the chain they refer to. In names and notes the source's numbering stands. Several values for one entry are separate records, joined by “and”; a condition that tells them apart may be missing. Identical values can stand only once.

T1: RSV F glycoprotein (NUF4) (respiratory syncytial virus)
T1 chain 1: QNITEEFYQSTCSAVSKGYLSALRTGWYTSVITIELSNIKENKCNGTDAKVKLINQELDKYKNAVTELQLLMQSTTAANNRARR
T1 chain 2: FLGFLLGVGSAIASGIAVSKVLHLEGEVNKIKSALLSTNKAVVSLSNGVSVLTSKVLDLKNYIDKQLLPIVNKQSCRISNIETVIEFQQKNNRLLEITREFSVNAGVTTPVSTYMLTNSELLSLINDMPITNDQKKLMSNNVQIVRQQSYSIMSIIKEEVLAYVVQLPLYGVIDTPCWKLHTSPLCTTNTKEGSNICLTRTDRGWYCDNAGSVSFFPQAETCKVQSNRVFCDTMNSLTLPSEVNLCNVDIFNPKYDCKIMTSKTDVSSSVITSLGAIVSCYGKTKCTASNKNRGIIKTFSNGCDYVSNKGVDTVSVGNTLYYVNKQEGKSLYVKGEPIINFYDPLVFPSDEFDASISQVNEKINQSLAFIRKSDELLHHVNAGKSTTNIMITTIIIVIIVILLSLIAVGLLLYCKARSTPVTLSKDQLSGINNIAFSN

B1: A13c4 IgG (antibody, V domains shown)
VH: QVTLRESGPALVKPTQTLTLTCTFSGFSLSTAGMSVGWIRQPPGKALEWLADIWWDGKKSYNPSLKDRLTISKDTSKNQVVLKVTNMDPADTATYYCARDMIFNFYFDVWGQGTTVTVSS
VL: DIQMTQSPSTLSASVGDRVTITCSLSSRVGYMHWYQQKPGKAPKLLIYDTMYQSSGVPSRFSGSGSGTEFTLTISSLQPDDFATYYCFQGSGYPFTFGGGTKVEIKR
B2: P12f2 Fab (Fab, V domains shown)
VH: B1 VH with A32P, G57D, S60H
VL: DIQMTQSPSTLSASVGDRVTITCSLSSRVGYMHWYQQKPGKAPKLLIYDTFYLSSGVPSRFSGSGSGTEFTLTISSLQPDDFATYYCFQGSGYPFTFGGGTKVEIK
B3: P11d4 Fab (Fab, V domains shown)
VH: B1 VH with A32P, S60H, F105W
VL: B2 VL with L25P, F51M, Y52R, S54A
B4: A12a6 Fab (Fab, V domains shown)
VH: B1 VH with S60D
VL: B2 VL with L25A, Y52K
B5: A13a11 Fab (Fab, V domains shown)
VH: B1 VH with G57D, S60H, F105W
VL: B2 VL with L25P, F51Y, Y52R, L53H
B6: A17d4(1) IgG (antibody, V domains shown)
VH: B1 VH
VL: B1 VL with S24L, L25P
B7: A1e9 Fab (Fab, V domains shown)
VH: B1 VH with S60H, F105W
VL: B2 VL with Y52K
notes: also called Ale9
B8: A13c4 Fab (Fab, V domains shown)
VH: B1 VH
VL: B2 VL with F51M, L53Q
B9: AFSF Fab (Fab, name in Kabat numbering, V domains shown)
VH: B1 VH with G57D, S60D, D67S, D100S, F103T
VL: B2 VL with L25A, R28S, F51S, Y52K, S54A, G92F
B10: W100F Fab (Fab, name in Kabat numbering, V domains shown)
VH: B1 VH with A32S, G57D, S60D, D67S, D100S, F103T
VL: B2 VL with L25A, R28S, F51S, Y52K, S54A
B11: AFFF(1) Fab (Fab, V domains shown)
VH: B1 VH with G57D, S60D, D67S, D100S, F103T
VL: B2 VL with L25A, R28S, Y52K, S54A, G92F
notes: also called AHH(1)
B12: G93F Fab (Fab, name in Kabat numbering, V domains shown)
VH: B1 VH with A32S, G57D, S60D, D67S, D100S, F103T, F105W
VL: B2 VL with L25A, R28S, F51S, Y52K, S54A, G92F
B13: AFFF(1) IgG (antibody, V domains shown)
VH: B1 VH with G57D, S60D, D67S, D100S, F103T
VL: B1 VL with L25A, R28S, M51F, Y52K, Q53L, S54A, G92F
B14: AFFY IgG (antibody, name in Kabat numbering, V domains shown)
VH: B1 VH with G57D, S60D, D67S, D100S, F103T
VL: B2 VL with L25A, R28S, Y52K, S54A, G92Y
B15: AFFG IgG (antibody, name in Kabat numbering, V domains shown)
VH: B1 VH with G57D, S60D, D67S, D100S, F103T
VL: B2 VL with L25A, R28S, Y52K, S54A
B16: AFSF IgG (antibody, name in Kabat numbering, V domains shown)
VH: B1 VH with G57D, S60D, D67S, D100S, F103T
VL: B2 VL with L25A, R28S, F51S, Y52K, S54A, G92F

molecular target: T2, F protein of RSV (Long strain) (RSV (Long strain), UniProt P12568 26-574); assay: cell-based or functional assay

Binder | Mean IC50 (Control) | Mean IC50 (Curve)
B1 | 0.0375 µg/mL | 0.0376 µg/mL
B2 | 0.0326 µg/mL | 0.0407 µg/mL
B3 | > 1 µg/mL | > 1 µg/mL
B4 | 0.031 µg/mL | 0.0287 µg/mL
B5 | 0.102 µg/mL | 0.12 µg/mL
B6 | 0.0354 µg/mL | 0.0342 µg/mL
B7 | 0.125 µg/mL | 0.157 µg/mL
B8 | 0.0258 µg/mL | 0.0264 µg/mL

Molecular target: T1, RSV F glycoprotein (NUF4)
Assay: SPR (BIAcore), mAb vs NUF4 (2:1)

Binder | Kd | fold in parentheses (palivizumab = 1) | koff | kon
B1 | 0.7 nM | 446 fold | 0.000225 s⁻¹ | 320000 M⁻¹ s⁻¹
B6 | 1.11 nM | 281 fold | 0.000292 s⁻¹ | 264000 M⁻¹ s⁻¹

molecular target: T3, recombinant C-terminally truncated RSV (A2 strain) F protein (RSV (A2 strain), UniProt P03420 26-524); assay: SPR (BIAcore), Fab over immobilised F
T3 construct: extracellular domain; also called truncated F protein; extracellular domain of the F protein from RSV A2

Binder | fold higher affinity than palivizumab Fab | fold improvement in koff (against palivizumab Fab) | fold improvement in affinity over 493L1FR Fab
B9 | > 117 fold |  | 
B10 |  | 8 fold | 
B11 | > 117 fold |  | 
B12 |  |  | 3 to 7 fold

molecular target: Bac-F (respiratory syncytial virus); assay: SPR (BIAcore), mAb vs Bac-F (1:1)

Binder | Kd | fold in parentheses (palivizumab = 1)
B1 | 0.13 nM | 30 fold
B6 | 0.09 nM | 43 fold

molecular target: RSV F protein (purified) (respiratory syncytial virus); assay: SPR (BIAcore), F protein immobilised

Binder | koff | kon
B2 | 0.000282 s⁻¹ | 663000 M⁻¹ s⁻¹
B13 | 0.000274 s⁻¹ and 0.000266 s⁻¹ and 0.000206 s⁻¹ | 108000 M⁻¹ s⁻¹ and 96000 M⁻¹ s⁻¹ and 124000 M⁻¹ s⁻¹
B3 | 0.000717 s⁻¹ | 570000 M⁻¹ s⁻¹ and 572000 M⁻¹ s⁻¹
B4 | 0.00023 s⁻¹ | 743000 M⁻¹ s⁻¹
B5 | 0.00025 s⁻¹ | 735000 M⁻¹ s⁻¹
B7 | 0.000453 s⁻¹ | 790000 M⁻¹ s⁻¹
B11 | 0.000245 s⁻¹ and 0.000446 s⁻¹ and 0.000268 s⁻¹ | 212000 M⁻¹ s⁻¹ and 156000 M⁻¹ s⁻¹ and 186000 M⁻¹ s⁻¹
B8 | 0.00028 s⁻¹ | 781000 M⁻¹ s⁻¹ and 735000 M⁻¹ s⁻¹

molecular target: T2, F protein of RSV (Long strain); assay: cell-based or functional assay; remark: another data set of the same source

Binder | Microneutralization IC50, IgG | Microneutralization IC50, Fab
B1 | 0.0376 µg/ml and 0.25 nM | 
B2 |  | 0.0407 µg/ml and 0.81 nM
B13 | 2.04 nM and 0.306 µg/ml | 
B4 |  | 0.0287 µg/ml and 0.57 nM
B5 |  | 0.012 µg/ml and 2.4 nM
B6 | 0.0342 µg/ml and 0.23 nM | 
B7 |  | 0.157 µg/ml and 3.14 nM
B11 |  | 0.0715 µg/ml and 1.43 nM
B8 |  | 0.0264 µg/ml and 0.53 nM

molecular target: T3, recombinant C-terminally truncated RSV …; assay: SPR (BIAcore), Fab over immobilised F; remark: another data set of the same source

Binder | Kd | koff | kon
B9 | ≤ 0.044 nM | ≤ 5e-06 s⁻¹ | 113000 M⁻¹ s⁻¹
B10 | 0.51 nM | 8.4e-05 s⁻¹ | 165000 M⁻¹ s⁻¹
B11 | ≤ 0.037 nM | ≤ 5e-06 s⁻¹ | 134000 M⁻¹ s⁻¹
B12 | 1.07 nM | 0.000174 s⁻¹ | 163000 M⁻¹ s⁻¹

molecular target: T2, F protein of RSV (Long strain); assay: cell-based or functional assay; remark: another data set of the same source

Binder | Microneutralization IC50, IgG | Microneutralization IC50, Fab
B13 | 0.306 µg/ml and 2.04 nM | 
B9 |  | 0.0908 µg/ml and 1.82 nM
B10 |  | 2.6 µg/ml and 52 nM
B14 | 0.407 µg/ml and 2.71 nM | 
B15 | 0.453 µg/ml and 3.02 nM | 
B16 | 0.521 µg/ml and 3.47 nM | 
B11 |  | 0.0715 µg/ml and 1.43 nM
B12 |  | 8.84 µg/ml and 177 nM

molecular target: T3, recombinant C-terminally truncated RSV …; assay: SPR (BIAcore), Fab over immobilised F; remark: another data set of the same source

Binder | Kd | koff | kon
B2 | 0.135 nM | 7.2e-05 s⁻¹ | 535000 M⁻¹ s⁻¹
B3 | 0.682 nM | 0.000389 s⁻¹ | 570000 M⁻¹ s⁻¹
B4 | 0.422 nM | 0.000219 s⁻¹ | 519000 M⁻¹ s⁻¹
B5 | 0.337 nM | 0.000229 s⁻¹ | 680000 M⁻¹ s⁻¹
B7 | 0.216 nM | 0.000113 s⁻¹ | 523000 M⁻¹ s⁻¹
B11 | ≤ 0.037 nM | ≤ 5e-06 s⁻¹ | 134000 M⁻¹ s⁻¹
B8 | 0.172 nM | 0.000112 s⁻¹ | 650000 M⁻¹ s⁻¹

Molecular target: T1, RSV F glycoprotein (NUF4)
Assay: SPR (BIAcore), mAb vs NUF4 (1:1)

Binder | Kd | fold in parentheses (palivizumab = 1) | koff | kon
B1 | 0.75 nM | 12 fold | 0.000272 s⁻¹ | 365000 M⁻¹ s⁻¹
B6 | 0.73 nM | 12 fold | 0.000362 s⁻¹ | 499000 M⁻¹ s⁻¹

Molecular target: T1, RSV F glycoprotein (NUF4)
Assay: ITC, NUF4 titrated into antibody, 35 C
Description: The binding thermodynamics of the antibodies were determined from ITC measurements using a Microcal, Inc. VP Titration Calorimeter. The VP titration calorimeter consists of a matched pair of sample and reference vessels (1.409 ml) enclosed in an adiabatic enclosure and a rotating stirrer-syringe for titrating ligand solutions into the sample vessel. The ITC measurements were performed at 25° C. and 35° C. The sample vessel contained the antibody in the phosphate buffer while the reference vessel contained just the buffer solution. The phosphate buffer solution was saline 67 mM PO₄ at pH 7.4 from HyClone, Inc. Five or ten μl aliquots of the 0.05 to 0.1 mM NUF4 solution were titrated 3 to 4 minutes apart into the antibody sample solution until the binding was saturated as evident by the lack of a heat exchange signal. […] This was attributed to a heat of dilution of the NUF4 titrant and was subtracted from the titrant heats obtained during the titration prior to analysis of the data.
A non-linear, least square minimization software program from Microcal, Inc., Origin 5.0, was used to fit the incremental heat of the ith titration (ΔQ (i)) of the total heat, Qₜ, to the total titrant concentration, Xₜ, according to the following equations (I),

Binder | Ka | Kd | ΔHb
B1 | 1.07e+08 M⁻¹ | 9 nM | 16 kcal/mol
B6 | 7.5e+07 M⁻¹ | 13 nM | 16.3 kcal/mol

molecular target: T3, recombinant C-terminally truncated RSV …; assay: SPR (BIAcore), IgG over immobilised F

Binder | koff | kon
B13 | ≤ 5e-06 s⁻¹ | 127000 M⁻¹ s⁻¹
B14 | ≤ 5e-06 s⁻¹ | 144000 M⁻¹ s⁻¹
B15 | ≤ 5e-06 s⁻¹ | 147000 M⁻¹ s⁻¹
B16 | ≤ 5e-06 s⁻¹ | 147000 M⁻¹ s⁻¹

molecular target: T2, F protein of RSV (Long strain); assay: cell-based or functional assay; remark: another data set of the same source

Binder | IC50
B2 | 0.65 nM
B3 | > 20 nM
B4 | 0.62 nM
B5 | 2.04 nM
B7 | 2.5 nM
B8 | 0.52 nM

molecular target: T3, recombinant C-terminally truncated RSV …; assay: SPR (BIAcore), IgG over immobilised F; remark: another data set of the same source

Binder | Kd | koff | kon
B1 | 0.132 nM | 3.96e-05 s⁻¹ | 300000 M⁻¹ s⁻¹
B13 | ≤ 0.039 nM | ≤ 5e-06 s⁻¹ | 127000 M⁻¹ s⁻¹
B6 | 0.089 nM | 4.07e-05 s⁻¹ | 456000 M⁻¹ s⁻¹
